Measurements from patent US20120065254.

Key:
[1] = biological target: human complement C5 in serum (Homo sapiens) (UniProt P01031+P01031); experiment: cell_activity; settings: 2'-F pyrimidines and 2'-OMe purines as printed, CGCU unmodified; complement-dependent sheep erythrocyte hemolysis
[2] = biological target: T1, human C5a (L-form) (Homo sapiens) (UniProt P01031); experiment: SPR; settings: L-RNA [all (L-RNA)]; 37 C, Mg, Ca
T1 sequence: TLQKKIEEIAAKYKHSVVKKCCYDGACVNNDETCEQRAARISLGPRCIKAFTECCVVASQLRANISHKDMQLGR

human complement C5 in serum (Homo sapiens), sequence (P01031 19-673 T389I, one chain of several): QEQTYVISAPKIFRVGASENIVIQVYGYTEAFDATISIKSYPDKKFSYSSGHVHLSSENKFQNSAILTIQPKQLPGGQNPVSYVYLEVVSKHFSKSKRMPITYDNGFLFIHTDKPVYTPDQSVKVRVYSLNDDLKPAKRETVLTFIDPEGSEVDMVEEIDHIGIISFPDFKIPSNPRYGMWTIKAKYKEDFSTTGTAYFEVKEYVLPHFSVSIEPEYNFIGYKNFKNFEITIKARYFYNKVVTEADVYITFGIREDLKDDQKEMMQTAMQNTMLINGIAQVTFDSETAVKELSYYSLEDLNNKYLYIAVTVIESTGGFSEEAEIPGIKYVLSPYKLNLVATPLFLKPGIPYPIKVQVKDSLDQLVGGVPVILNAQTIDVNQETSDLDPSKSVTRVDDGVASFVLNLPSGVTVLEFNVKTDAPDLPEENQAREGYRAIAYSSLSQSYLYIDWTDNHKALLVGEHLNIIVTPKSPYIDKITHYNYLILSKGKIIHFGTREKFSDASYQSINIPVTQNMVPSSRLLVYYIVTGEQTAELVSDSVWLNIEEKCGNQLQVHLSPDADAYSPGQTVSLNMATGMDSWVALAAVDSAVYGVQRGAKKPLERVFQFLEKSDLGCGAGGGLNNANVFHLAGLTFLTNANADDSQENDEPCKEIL

Substance | IC50 [1] [nM] | Kd [2] [nM]
C5C6 aptamer | 1000 | –
UGCUGGACAGGACCAAGGUAAGGGCGGACCGAAAAACCUAGCAGCA [182-A5-002] | – | 0.3
